The values below come from IntAct's records for PubMed 20956295.

B1: Tumor necrosis factor receptor superfamily member 6 (Homo sapiens), P25445-1 (parent)
chain: MLGIWTLLPLVLTSVARLSSKSVNAQVTDINSKGLELRKTVTTVETQNLEGLHHDGQFCHKPCPPGERKARDCTVNGDEPDCVPCQEGKEYTDKAHFSSKCRRCRLCDEGHGLEVEINCTRTQNTKCRCKPNFFCNSTVCEHCDPCTKCEHGIIKECTLTSNTKCKEEGSRSNLGWLCLLLLPIPLIVWVKRKEVQKTCRKHRKENQGSHESPTLNPETVAINLSDVDLSKYITTIAGVMTLSQVKGFVRKNGVNEAKIDEIKNDNVQDTAEQKVQLLRNWHQLHGKKEAYDTLIKDLKKANLCTLAEKIQTIILKDITSDSENSNFRNEIQSLV

The variants in this assay derive from B1. As to conditions: with cav1_human CAV1, Q03135.
Sequence of cav1_human CAV1, Q03135 (Q03135 whole entry): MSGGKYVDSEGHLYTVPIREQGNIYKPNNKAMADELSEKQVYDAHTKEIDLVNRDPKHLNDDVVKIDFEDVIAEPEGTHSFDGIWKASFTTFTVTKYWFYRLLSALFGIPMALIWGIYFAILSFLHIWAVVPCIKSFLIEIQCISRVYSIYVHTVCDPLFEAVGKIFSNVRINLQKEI
On to C199S, for which the “effect of a mutation on the interaction” value was “disrupting interaction”.
